Target: RELMβ bait: RELMβ fused to rat CD4d3+4, BirA recognition site and 6X-histidine tag (mouse) (UniProt Q99P86)
Experiment: SPR

UniProt Q99P86, sequence (Q99P86 24-105): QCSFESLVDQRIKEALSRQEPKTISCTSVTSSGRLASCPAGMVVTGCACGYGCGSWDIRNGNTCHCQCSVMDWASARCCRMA

Kd: < 0.1 nM
Substance: HpBoRB, C-terminal 6X-His tagged, from the pSecTAG2A expression vector (natural protein)

Reference: article doi:10.1101/2025.05.27.656348
